Experimental data: the supplement of paper PMC10126150
± gives the standard deviation of the averaged measurements.

Test system: ATP
Assay: switch fluorescence ratio, 500 uM ATP over buffer (Cy3 cluster intensity, sum of 5 cycles each) (fold (ratio)); higher = stronger signal-on switching upon ATP binding; sequences stand for … in TCGTCGGCAGCGTCAGATGTGTATAAGAGACAGTTTTTTTTTTTTTTTTTTTTTTTTT…TC
Details: aptamer strand: ATP DNA aptamer (quencher-CACCTGGGGGAGTATTGCGGAGGAAGG + anchor), 100 nM annealed; ATP concentration: 500 uM
In short: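 Values give the fluorescence ratio for each switch-domain sequence, averaged from per-cluster ratios of summed target-cycle to summed buffer-cycle Cy3 intensity. The Cy3-labelled switching-strand clusters sat on a modified Illumina MiSeq flow-cell, were annealed to 100 nM quencher-labelled ATP aptamer, and were imaged in selection buffer, then after 15 min with 500 uM ATP at 22 °C. Five cycles ran with NaOH stripping and re-annealing between them, and clusters outside 100-1000 RFU were excluded.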
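Also: ATP exposure 15 min at 22 °C before imaging.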

Sequence: CGCGGAGTGA
- switch fluorescence ratio: 1.002 ± 0.01

Sequence: CGCGGATGGG
- switch fluorescence ratio: 1.05 ± 0.05

Sequence: CGCGGCGGGT
- switch fluorescence ratio: 1.02 ± 0.034

Sequence: CGCGGGAGAG
- switch fluorescence ratio: 1.02 ± 0.04

Sequence: CGCGGGCGGA
- switch fluorescence ratio: 1.021 ± 0.0044

Sequence: CGCGGGGCGC
- switch fluorescence ratio: 1.03 ± 0.028

Sequence: CGCGGGGCGG
- switch fluorescence ratio: 1.02 ± 0.029

Sequence: CGCGGGGTGC
- switch fluorescence ratio: 1.06 ± 0.097

Sequence: CGCGGGTATG
- switch fluorescence ratio: 1.05 ± 0.026

Sequence: CGCGGTAGCG
- switch fluorescence ratio: 0.972 ± 0.041

Sequence: CGCGGTCAAC
- switch fluorescence ratio: 1.35 ± 0.2

Sequence: CGCGGTGCTC
- switch fluorescence ratio: 3.17 ± 0.43

Sequence: CGCGTAAAAT
- switch fluorescence ratio: 1.04 ± 0.035

Sequence: CGCGTATGTT
- switch fluorescence ratio: 0.985 ± 0.026

Sequence: CGCGTCTCCC
- switch fluorescence ratio: 3.58 ± 0.38

Sequence: CGCGTTTTTG
- switch fluorescence ratio: 1.01 ± 0.014

Sequence: CGCTACGTGG
- switch fluorescence ratio: 0.99 ± 0.028

Sequence: CGCTAGGAAA
- switch fluorescence ratio: 1.006 ± 0.0076

Sequence: CGCTAGGGAC
- switch fluorescence ratio: 1.314 ± 0.003

Sequence: CGCTATTCGG
- switch fluorescence ratio: 1.04 ± 0.043

Sequence: CGCTATTTTT
- switch fluorescence ratio: 1.02 ± 0.02

Sequence: CGCTCATCTG
- switch fluorescence ratio: 0.968 ± 0.052

Sequence: CGCTCTTGGA
- switch fluorescence ratio: 0.976 ± 0.031

Sequence: CGCTGACAAG
- switch fluorescence ratio: 0.9916 ± 0.0099

Sequence: CGCTGATGGG
- switch fluorescence ratio: 1.01 ± 0.071

Sequence: CGCTGCACAT
- switch fluorescence ratio: 2.21 ± 0.045

Sequence: CGCTGGCCTT
- switch fluorescence ratio: 0.975 ± 0.016

Sequence: CGCTGGGATT
- switch fluorescence ratio: 0.9913 ± 0.0057

Sequence: CGCTGTACAG
- switch fluorescence ratio: 0.96028 ± 0.00038

Sequence: CGCTGTAGGT
- switch fluorescence ratio: 1.02 ± 0.0058

Sequence: CGCTTACTTT
- switch fluorescence ratio: 1.24 ± 0.021

Sequence: CGCTTAGGGT
- switch fluorescence ratio: 1.05 ± 0.07

Sequence: CGCTTAGTGG
- switch fluorescence ratio: 1.03 ± 0.0027

Sequence: CGCTTTAGGT
- switch fluorescence ratio: 1.02 ± 0.012

Sequence: CGCTTTGTGT
- switch fluorescence ratio: 0.973 ± 0.032

Sequence: CGCTTTTCGT
- switch fluorescence ratio: 1.0023 ± 8e-05

Sequence: CGCTTTTGGA
- switch fluorescence ratio: 1 ± 0.036

Sequence: CGGAAAAAGG
- switch fluorescence ratio: 0.992 ± 0.034

Sequence: CGGAAAGACG
- switch fluorescence ratio: 1.05 ± 0.014

Sequence: CGGAACTGAA
- switch fluorescence ratio: 1.02 ± 0.072

Sequence: CGGAACTGGT
- switch fluorescence ratio: 1.04 ± 0.058

Sequence: CGGAAGGGGG
- switch fluorescence ratio: 1 ± 0.048

Sequence: CGGAAGGTAG
- switch fluorescence ratio: 0.962 ± 0.015

Sequence: CGGAATAGGG
- switch fluorescence ratio: 1.07 ± 0.052

Sequence: CGGAATGGGG
- switch fluorescence ratio: 1.02 ± 0.015

Sequence: CGGAATGTAT
- switch fluorescence ratio: 0.992 ± 0.04

Sequence: CGGAATTGGG
- switch fluorescence ratio: 0.9735 ± 0.0085

Sequence: CGGACGAAAG
- switch fluorescence ratio: 1.02 ± 0.048

Sequence: CGGACGGGTT
- switch fluorescence ratio: 0.985 ± 0.019

Sequence: CGGACTAGGG
- switch fluorescence ratio: 1.04 ± 0.022

Sequence: CGGACTATAT
- switch fluorescence ratio: 1.07 ± 0.032

Sequence: CGGACTCGTG
- switch fluorescence ratio: 0.954 ± 0.021

Sequence: CGGACTGTCA
- switch fluorescence ratio: 1.02 ± 0.016

Sequence: CGGAGAATGG
- switch fluorescence ratio: 1.11 ± 0.13

Sequence: CGGAGACGGT
- switch fluorescence ratio: 0.9958 ± 0.0078

Sequence: CGGAGCAGTG
- switch fluorescence ratio: 1.75 ± 0.055

Sequence: CGGAGCGACG
- switch fluorescence ratio: 1.03 ± 0.015

Sequence: CGGAGGACAC
- switch fluorescence ratio: 1.09 ± 0.059

Sequence: CGGAGGAGGA
- switch fluorescence ratio: 0.993 ± 0.038

Sequence: CGGAGGGATG
- switch fluorescence ratio: 1.71 ± 0.66

Sequence: CGGAGGGGCG
- switch fluorescence ratio: 0.963 ± 0.06

Sequence: CGGAGGGGCT
- switch fluorescence ratio: 1.03 ± 0.015

Sequence: CGGAGGGGGG
- switch fluorescence ratio: 1.03 ± 0.062

Sequence: CGGAGGGTGG
- switch fluorescence ratio: 0.961 ± 0.041

Sequence: CGGAGTATAT
- switch fluorescence ratio: 1.87 ± 0.11

Sequence: CGGAGTTATC
- switch fluorescence ratio: 1.35 ± 0.2

Sequence: CGGAGTTGAA
- switch fluorescence ratio: 1.07 ± 0.027

Sequence: CGGATAGTCA
- switch fluorescence ratio: 1.042 ± 0.0078

Sequence: CGGATCGACT
- switch fluorescence ratio: 0.977 ± 0.02

Sequence: CGGATGAGGA
- switch fluorescence ratio: 0.984 ± 0.01

Sequence: CGGATGATGA
- switch fluorescence ratio: 1.02 ± 0.089

Sequence: CGGATGGAAA
- switch fluorescence ratio: 0.964 ± 0.02

Sequence: CGGATGGCC
- switch fluorescence ratio: 0.965 ± 0.036

Sequence: CGGATTTATC
- switch fluorescence ratio: 1.01 ± 0.033

Sequence: CGGATTTCAG
- switch fluorescence ratio: 0.951 ± 0.03

Sequence: CGGCAAAGTA
- switch fluorescence ratio: 0.972 ± 0.065

Sequence: CGGCAGGCTC
- switch fluorescence ratio: 1.19 ± 0.053

Sequence: CGGCAGGTTT
- switch fluorescence ratio: 0.992 ± 0.016

Sequence: CGGCATGGTG
- switch fluorescence ratio: 0.98 ± 0.02

Sequence: CGGCCAGGAA
- switch fluorescence ratio: 1.05 ± 0.024

Sequence: CGGCCGGAGT
- switch fluorescence ratio: 0.983 ± 0.0086

Sequence: CGGCGATCGG
- switch fluorescence ratio: 0.99 ± 0.013

Sequence: CGGCGCACAG
- switch fluorescence ratio: 1.31 ± 0.051

Sequence: CGGCGCTGGA
- switch fluorescence ratio: 1.01 ± 0.055

Sequence: CGGCGGCCCT
- switch fluorescence ratio: 1.005 ± 0.0092

Sequence: CGGCGGGAGT
- switch fluorescence ratio: 1.019 ± 0.0073

Sequence: CGGCGGGGAG
- switch fluorescence ratio: 1 ± 0.044

Sequence: CGGCTAGAAG
- switch fluorescence ratio: 0.994 ± 0.038

Sequence: CGGCTAGGGG
- switch fluorescence ratio: 1.02 ± 0.037

Sequence: CGGCTAGTGC
- switch fluorescence ratio: 1.05 ± 0.042

Sequence: CGGCTCGTTT
- switch fluorescence ratio: 1.049 ± 0.0079

Sequence: CGGCTCTCTT
- switch fluorescence ratio: 1.009 ± 0.0017

Sequence: CGGCTGCGGG
- switch fluorescence ratio: 0.978 ± 0.022

Sequence: CGGCTGGACG
- switch fluorescence ratio: 0.958 ± 0.047

Sequence: CGGCTGGCGG
- switch fluorescence ratio: 0.997 ± 0.026

Sequence: CGGCTGGGGA
- switch fluorescence ratio: 1.03 ± 0.017

Sequence: CGGCTGTTTT
- switch fluorescence ratio: 1.037 ± 0.0082

Sequence: CGGCTTTGCC
- switch fluorescence ratio: 0.999 ± 0.016

Sequence: CGGCTTTTTA
- switch fluorescence ratio: 0.9588 ± 0.0056

Sequence: CGGCTTTTTG
- switch fluorescence ratio: 0.991 ± 0.034
